Results reported in the Human Domainome abundance scans (Beltran et al. 2025).
± gives the uncertainty stated by the source.

B1: Activity-dependent neuroprotector homeobox protein, residues 770 to 810; numbered along this chain, Q9H2P0 (parent)
chain: FLTKYFNKQPYPTRREIEKLAASLWLWKSDIASHFSNKRKK
B2: POU domain, class 6, transcription factor 2, residues 609 to 663; numbered along this chain, P78424 (parent)
chain: KRRTSFTPQALEILNAHFEKNTHPSGQEMTEIAEKLNYDREVVRVWFCNKRQALK

Variants of: B1
Assay: abundance fitness (aPCA) (normalised: wild type 0, dead -1); higher = more abundant; growth selection in yeast, the domain comes from the species named
Conditions: Homo sapiens

Abundance fitness: each site, then its substitutions
L26: S 0.033 ± 0.051
L24: F -0.197 ± 0.13
F35: T -0.229 ± 0.05; M 0.004 ± 0.061; V -0.063 ± 0.047
Y5: N -0.564 ± 0.25
E18: P -0.189 ± 0.068; I -0.749 ± 0.49; Y -0.378 ± 0.14
R14: W -0.262 ± 0.12; Q -0.265 ± 0.14
I17: F -0.205 ± 0.079; D -0.604 ± 0.2; M 0.239 ± 0.087; R -0.294 ± 0.056; A -0.127 ± 0.059
L20: G -0.181 ± 0.069; Q -0.462 ± 0.096; I -0.005 ± 0.099
K40: N -0.425 ± 0.11; F -0.098 ± 0.082; P -0.28 ± 0.07
I31: K -0.276 ± 0.084; S -0.154 ± 0.05
K28: L 0.55 ± 0.048; C 0.317 ± 0.059
W27: Q -0.492 ± 0.13
A32: C 0.074 ± 0.14
H34: T -0.128 ± 0.065; P -0.01 ± 0.05; C 0.069 ± 0.056; K 0.022 ± 0.079
K19: W -0.79 ± 0.2; D -0.099 ± 0.075; Q -0.276 ± 0.089; C -0.502 ± 0.11
S36: E -0.395 ± 0.18; I -0.091 ± 0.082; L -0.316 ± 0.09
F1: D -0.805 ± 0.27; R -1.12 ± 0.33
K38: L -0.197 ± 0.054
N7: S -0.107 ± 0.049
P10: A -0.095 ± 0.068; H -0.153 ± 0.13; S 0.06 ± 0.068; T 0.011 ± 0.061
K4: T -0.877 ± 0.29
T13: D -0.26 ± 0.11; V 0.088 ± 0.069
F6: T -0.328 ± 0.056; G -0.442 ± 0.056; P -0.942 ± 0.071; I -0.237 ± 0.059; E -0.821 ± 0.18
K8: I -1.43 ± 0.19; D -0.325 ± 0.076; V -1.15 ± 0.12
A22: V -0.344 ± 0.055
K41: T -0.128 ± 0.12; A -0.319 ± 0.23
R15: M -0.204 ± 0.069; Q -0.162 ± 0.085
P12: Q -0.036 ± 0.091
T3: I -0.475 ± 0.1; P -0.935 ± 0.13; H -0.325 ± 0.058; L -0.759 ± 0.084; A -0.303 ± 0.055
W25: K 0.361 ± 0.084
D30: H -0.124 ± 0.092; W -0.01 ± 0.077; P 0.056 ± 0.064
S23: C -0.119 ± 0.082; G -0.182 ± 0.094
S29: H 0.077 ± 0.076
N37: A -0.093 ± 0.052; P -0.107 ± 0.059; M 0.013 ± 0.068; H -0.072 ± 0.071; T -0.077 ± 0.055
A21: I -0.169 ± 0.099; W 0.008 ± 0.053; C -0.099 ± 0.074
E16: Y -0.096 ± 0.091
Q9: V -0.269 ± 0.15; N -0.007 ± 0.068; C -0.014 ± 0.063
S33: L -0.154 ± 0.053; T -0.076 ± 0.06
R39: A -0.076 ± 0.052; M 0.134 ± 0.078

Variants of: B2
Assay: as above
Conditions: Homo sapiens

Abundance fitness: each site, then its substitutions
F47: A -0.744 ± 0.072; R -0.949 ± 0.06; Q -0.807 ± 0.12; Y -0.162 ± 0.1; E -0.89 ± 0.1; G -0.853 ± 0.068; H -0.913 ± 0.16; I -0.782 ± 0.12; L -0.782 ± 0.069; C -0.843 ± 0.087; S -0.81 ± 0.071; T -0.763 ± 0.1; N -1.08 ± 0.19; D -0.762 ± 0.13; P -0.775 ± 0.1; K -0.722 ± 0.11; M -0.686 ± 0.091; W -0.168 ± 0.058
V42: D -0.012 ± 0.1; G -0.056 ± 0.062; T 0.002 ± 0.12; S 0.029 ± 0.074; Y -0.099 ± 0.19; N -0.064 ± 0.18; W -0.151 ± 0.08; Q -0.124 ± 0.14; K 0.066 ± 0.11; L 0.061 ± 0.082; M 0.034 ± 0.094; P 0.019 ± 0.15; I -0.117 ± 0.13; R -0.176 ± 0.082; E 0.004 ± 0.073
R44: C -0.076 ± 0.13; D -0.179 ± 0.12; T 0.018 ± 0.1; K -0.195 ± 0.11; S -0.094 ± 0.074; L -0.21 ± 0.067; H -0.199 ± 0.14; V 0.034 ± 0.083; W 0.037 ± 0.078; E 0.027 ± 0.1; A -0.017 ± 0.082; I -0.152 ± 0.13; F -0.117 ± 0.1; M -0.075 ± 0.093; N -0.195 ± 0.15; Y 0.062 ± 0.13; P -0.421 ± 0.1
V45: G 0.03 ± 0.088; A -0.029 ± 0.2; W -0.055 ± 0.14; Q -0.296 ± 0.18; L 0.02 ± 0.099; E -0.194 ± 0.23; I -0.068 ± 0.13; D 0.094 ± 0.23; R 0.018 ± 0.098; Y -0.653 ± 0.29; P -0.706 ± 0.18; F -0.243 ± 0.12; M 0.07 ± 0.48; H -0.141 ± 0.17; K -0.149 ± 0.15
Q52: I 0.045 ± 0.14; G -0.223 ± 0.1; W -0.244 ± 0.1; T -0.059 ± 0.12; P -0.218 ± 0.098; K 0.018 ± 0.11; M -0.188 ± 0.12; A -0.006 ± 0.1; C -0.126 ± 0.15; L -0.005 ± 0.071; F -0.171 ± 0.13; S -0.175 ± 0.08; N 0.014 ± 0.17; H 0.022 ± 0.14; Y -0.339 ± 0.15; E 0.117 ± 0.18; V -0.161 ± 0.094; D -0.119 ± 0.12
W46: N -0.891 ± 0.23; P -0.801 ± 0.26; K -0.983 ± 0.43; C -0.997 ± 0.28; Q -0.827 ± 0.43; R -0.753 ± 0.1; D -0.447 ± 0.26; F -0.405 ± 0.29; V -1.02 ± 0.13; E -0.91 ± 0.21; I -0.828 ± 0.41; H -0.53 ± 0.42; Y 0.032 ± 0.23; G -0.707 ± 0.11
E41: A -0.218 ± 0.066; C -0.119 ± 0.12; R -0.107 ± 0.067; K 0.021 ± 0.13; I -0.504 ± 0.18; T -0.082 ± 0.093; S -0.153 ± 0.064; L -0.617 ± 0.07; Y -0.321 ± 0.15; N -0.185 ± 0.23; P -0.879 ± 0.14; W -0.319 ± 0.078; V -0.496 ± 0.071; H -0.29 ± 0.2; Q -0.216 ± 0.099; G -0.186 ± 0.064; M -0.42 ± 0.12; F -0.743 ± 0.14; D -0.104 ± 0.14
R40: T -0.011 ± 0.091; V -0.013 ± 0.073; Y -0.087 ± 0.11; W -0.014 ± 0.089
V43: W -0.979 ± 0.14; L -0.201 ± 0.096; P -0.938 ± 0.22; E -0.762 ± 0.15; H -1.04 ± 0.41; S -0.958 ± 0.13; M -0.931 ± 0.18; C -0.24 ± 0.15; F -0.665 ± 0.24; R -0.935 ± 0.11; T -0.579 ± 0.1; G -0.943 ± 0.091; K -1.17 ± 0.24; D -0.764 ± 0.31; Y -0.908 ± 0.33; A -0.614 ± 0.099; Q -1.04 ± 0.26; I -0.218 ± 0.13
K50: I -0.916 ± 0.19; W -0.836 ± 0.15; C -0.662 ± 0.25; A -0.125 ± 0.097; H -0.444 ± 0.29; S -0.21 ± 0.088; P -1.19 ± 0.36; R 0.022 ± 0.071; V -0.638 ± 0.077; L -0.834 ± 0.11; D -0.946 ± 0.17; F -1.15 ± 0.31; M -0.184 ± 0.17; N -0.222 ± 0.27; T -0.201 ± 0.12; E -0.156 ± 0.14; Y -1.01 ± 0.3; G -0.491 ± 0.074
R51: E -0.337 ± 0.15; D -0.457 ± 0.21; N -0.074 ± 0.19; V -0.165 ± 0.094; A -0.094 ± 0.11; C -0.316 ± 0.15; Q -0.031 ± 0.16; W -0.295 ± 0.12; T -0.243 ± 0.16; L 0.011 ± 0.091; M -0.377 ± 0.2; I -0.226 ± 0.17; P -0.636 ± 0.15; S -0.174 ± 0.098; Y -0.097 ± 0.13; F -0.331 ± 0.14; H -0.385 ± 0.18; K -0.026 ± 0.14
A53: C -0.215 ± 0.12; V -0.2 ± 0.13; Y -0.018 ± 0.21; S 0.005 ± 0.099; T -0.157 ± 0.13; L -0.086 ± 0.098; Q 0.042 ± 0.13; M 0.034 ± 0.19; F -0.267 ± 0.16; R -0.194 ± 0.096; K -0.167 ± 0.27; P -0.392 ± 0.12; E -0.105 ± 0.27; H 0.012 ± 0.24; W -0.089 ± 0.14; N 0.046 ± 0.31; I -0.11 ± 0.14
N49: I -0.226 ± 0.27; D -0.152 ± 0.16; E 0.177 ± 0.16; S -0.061 ± 0.096; A -0.038 ± 0.14; F -0.292 ± 0.19; K 0.008 ± 0.13; P -0.683 ± 0.25; V -0.138 ± 0.1; Q 0.03 ± 0.24; W -0.339 ± 0.11; G -0.13 ± 0.11; M -0.177 ± 0.11; Y -0.218 ± 0.14; H -0.18 ± 0.2; R -0.157 ± 0.084; L -0.292 ± 0.1
C48: E 0.259 ± 0.22; F -0.5 ± 0.43; D -0.144 ± 0.37; T -0.197 ± 0.44; Q 0.279 ± 0.38; V 0.124 ± 0.36; S 0.039 ± 0.16; W 0.02 ± 0.37; N 0.277 ± 0.43; I -0.475 ± 0.36; R -0.057 ± 0.19; M 0.18 ± 0.39; G -0.008 ± 0.12; Y -0.062 ± 0.17
L54: K -0.159 ± 0.16; M -0.106 ± 0.19; S -0.065 ± 0.1; Q -0.175 ± 0.34; A -0.002 ± 0.14; F -0.199 ± 0.12; D -0.182 ± 0.31; E -0.133 ± 0.13; H -0.159 ± 0.22; I -0.242 ± 0.25; R -0.103 ± 0.12; V -0.101 ± 0.12; T -0.217 ± 0.22; C -0.258 ± 0.36; Y -0.417 ± 0.47; P 0.042 ± 0.17
K55: G -0.226 ± 0.42; V -0.304 ± 0.5; N -0.186 ± 0.27; R 0.001 ± 0.31
